According to paper PMC8928417:

Biological target: biotinylated histone H3 peptide trimethylated at lysine 27, H3K27me3 (21–44), P68431
Test: peptide or protein array

B1: Pc2TF, bivalent polycomb-based transcription factor with the flexible linker (GGGGS)4, Q9HC52 1-62; Q9HC52 1-62 (designed binder)
chain: MELSAVGERVFAAEALLKRRIRKGRMEYLVKWKGWSQKYSTWEPEENILDARLLAAFEERERGGGGSGGGGSGGGGSGGGGSMELSAVGERVFAAEALLKRRIRKGRMEYLVKWKGWSQKYSTWEPEENILDARLLAAFEERER
modifications: not checked
A fold smaller Kd^app than PcTF of 2 fold was found for B1 in this work.
